# Measurements reported in US20170334973A1.
# Tests used:
# [1] = molecular target: BDBV GP (Bundibugyo virus (BDBV)); test: GP ELISA, purified mAb
# [2] = molecular target: BDBV GP (Bundibugyo virus (BDBV)); test: ELISA, purified mAb
# FVM09 (antibody), sequence (VH): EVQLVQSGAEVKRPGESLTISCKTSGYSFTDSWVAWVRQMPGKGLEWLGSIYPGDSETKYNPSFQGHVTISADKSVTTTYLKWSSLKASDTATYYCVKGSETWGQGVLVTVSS
# FVM09 (antibody), sequence (V domain): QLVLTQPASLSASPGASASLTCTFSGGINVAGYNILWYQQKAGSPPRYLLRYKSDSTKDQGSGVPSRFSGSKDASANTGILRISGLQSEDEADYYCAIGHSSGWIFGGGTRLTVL
substance,measurement,setting,value
FVM09 (antibody),EC50,[1],0.02 µg/mL
same,EC50,[2],< 0.015 µg/mL
